Data published in IntAct's records for PubMed 31515488.

B1: DCC-interacting protein 13-beta (Homo sapiens), Q8NEU8 (parent)
chain: MPAVDKLLLEEALQDSPQTRSLLSVFEEDAGTLTDYTNQLLQAMQRVYGAQNEMCLATQQLSKQLLAYEKQNFALGKGDEEVISTLHYFSKVVDELNLLHTELAKQLADTMVLPIIQFREKDLTEVSTLKDLFGLASNEHDLSMAKYSRLPKKKENEKVKTEVGKEVAAARRKQHLSSLQYYCALNALQYRKQMAMMEPMIGFAHGQINFFKKGAEMFSKRMDSFLSSVADMVQSIQVELEAEAEKMRVSQQELLSVDESVYTPDSDVAAPQINRNLIQKAGYLNLRNKTGLVTTTWERLYFFTQGGNLMCQPRGAVAGGLIQDLDNCSVMAVDCEDRRYCFQITTPNGKSGIILQAESRKENEEWICAINNISRQIYLTDNPEAVAIKLNQTALQAVTPITSFGKKQESSCPSQNLKNSEMENENDKIVPKATASLPEAEELIAPGTPIQFDIVLPATEFLDQNRGSRRTNPFGETEDESFPEAEDSLLQQMFIVRFLGSMAVKTDSTTEVIYEAMRQVLAARAIHNIFRMTESHLMVTSQSLRLIDPQTQVSRANFELTSVTQFAAHQENKRLVGFVIRVPESTGEESLSTYIFESNSEGEKICYAINLGKEIIEVQKDPEALAQLMLSIPLTNDGKYVLLNDQPDDDDGNPNEHRGAESEA
partner: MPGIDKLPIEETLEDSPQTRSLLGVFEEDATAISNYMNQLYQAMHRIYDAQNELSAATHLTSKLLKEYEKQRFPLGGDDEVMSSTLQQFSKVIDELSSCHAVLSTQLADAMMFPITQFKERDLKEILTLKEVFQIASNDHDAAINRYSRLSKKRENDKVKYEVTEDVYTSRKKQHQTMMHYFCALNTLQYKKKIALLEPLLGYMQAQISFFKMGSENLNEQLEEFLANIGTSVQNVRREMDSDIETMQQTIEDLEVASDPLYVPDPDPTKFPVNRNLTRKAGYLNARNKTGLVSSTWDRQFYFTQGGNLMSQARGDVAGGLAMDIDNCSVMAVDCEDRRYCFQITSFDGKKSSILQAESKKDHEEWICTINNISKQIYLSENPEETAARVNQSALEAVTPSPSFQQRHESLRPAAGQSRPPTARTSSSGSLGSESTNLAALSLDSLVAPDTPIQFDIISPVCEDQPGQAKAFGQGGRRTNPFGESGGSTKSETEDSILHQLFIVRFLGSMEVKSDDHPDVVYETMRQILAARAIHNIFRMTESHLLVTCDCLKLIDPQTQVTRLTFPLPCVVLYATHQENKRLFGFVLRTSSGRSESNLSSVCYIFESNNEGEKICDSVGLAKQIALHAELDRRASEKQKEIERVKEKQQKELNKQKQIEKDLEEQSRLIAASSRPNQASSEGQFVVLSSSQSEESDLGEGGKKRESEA
B2: Breast cancer metastasis-suppressor 1 (Homo sapiens), Q9HCU9 (parent)
chain: MPVQPPSKDTEEMEAEGDSAAEMNGEEEESEEERSGSQTESEEESSEMDDEDYERRRSECVSEMLDLEKQFSELKEKLFRERLSQLRLRLEEVGAERAPEYTEPLGGLQRSLKIRIQVAGIYKGFCLDVIRNKYECELQGAKQHLESEKLLLYDTLQGELQERIQRLEEDRQSLDLSSEWWDDKLHARGSSRSWDSLPPSKRKKAPLVSGPYIVYMLQEIDILEDWTAIKKARAAVSPQKRKSDGP
partner: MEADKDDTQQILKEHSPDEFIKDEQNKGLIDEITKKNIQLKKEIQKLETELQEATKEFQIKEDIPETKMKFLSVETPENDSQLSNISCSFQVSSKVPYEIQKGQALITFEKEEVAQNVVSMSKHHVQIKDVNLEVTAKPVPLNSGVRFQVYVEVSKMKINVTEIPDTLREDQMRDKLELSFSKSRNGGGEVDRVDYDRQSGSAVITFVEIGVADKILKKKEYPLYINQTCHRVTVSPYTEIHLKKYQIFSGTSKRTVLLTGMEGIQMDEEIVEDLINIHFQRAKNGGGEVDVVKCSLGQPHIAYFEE
B3: PDCD10 and GCKIII kinases-associated protein 1 (Homo sapiens), Q8IY42 (parent)
chain: MGCRCCKIIQSYLFDPVQVPSPGYVNEVNSCKLDEDDTDKLKGKWSSEVLVQKNDPQRQGSKKTESSSRTADPWEPCWPHQGPLPQGDAGGEHHACGVNGIGPAATPQPTGNSSPTQDDRGSWASTANTVPPTQPFLEGGGTRKQDCVLLASEGTQVMRNGDSRAPSEAESFALEVQDHVFQIPAPDYLQHWGPAGDNVDHNEKDCVFKNHTEDESLEGIQPPVGEHGLNTPFSVRRSWDSLNEDVETEVLSICFNEKGPVHAMPVVDSGNRQEDTHGSDGDGDGEIVDEDAAVAEALAALEAATAGEDLDETD
B4: Zinc finger protein Aiolos (Homo sapiens), Q9UKT9 (parent)
chain: MEDIQTNAELKSTQEQSVPAESAAVLNDYSLTKSHEMENVDSGEGPANEDEDIGDDSMKVKDEYSERDENVLKSEPMGNAEEPEIPYSYSREYNEYENIKLERHVVSFDSSRPTSGKMNCDVCGLSCISFNVLMVHKRSHTGERPFQCNQCGASFTQKGNLLRHIKLHTGEKPFKCHLCNYACQRRDALTGHLRTHSVEKPYKCEFCGRSYKQRSSLEEHKERCRTFLQSTDPGDTASAEARHIKAEMGSERALVLDRLASNVAKRKSSMPQKFIGEKRHCFDVNYNSSYMYEKESELIQTRMMDQAINNAISYLGAEALRPLVQTPPAPTSEMVPVISSMYPIALTRAEMSNGAPQELEKKSIHLPEKSVPSERGLSPNNSGHDSTDTDSNHEERQNHIYQQNHMVLSRARNGMPLLKEVPRSYELLKPPPICPRDSVKVINKEGEVMDVYRCDHCRVLFLDYVMFTIHMGCHGFRDPFECNMCGYRSHDRYEFSSHIARGEHRALLK
partner: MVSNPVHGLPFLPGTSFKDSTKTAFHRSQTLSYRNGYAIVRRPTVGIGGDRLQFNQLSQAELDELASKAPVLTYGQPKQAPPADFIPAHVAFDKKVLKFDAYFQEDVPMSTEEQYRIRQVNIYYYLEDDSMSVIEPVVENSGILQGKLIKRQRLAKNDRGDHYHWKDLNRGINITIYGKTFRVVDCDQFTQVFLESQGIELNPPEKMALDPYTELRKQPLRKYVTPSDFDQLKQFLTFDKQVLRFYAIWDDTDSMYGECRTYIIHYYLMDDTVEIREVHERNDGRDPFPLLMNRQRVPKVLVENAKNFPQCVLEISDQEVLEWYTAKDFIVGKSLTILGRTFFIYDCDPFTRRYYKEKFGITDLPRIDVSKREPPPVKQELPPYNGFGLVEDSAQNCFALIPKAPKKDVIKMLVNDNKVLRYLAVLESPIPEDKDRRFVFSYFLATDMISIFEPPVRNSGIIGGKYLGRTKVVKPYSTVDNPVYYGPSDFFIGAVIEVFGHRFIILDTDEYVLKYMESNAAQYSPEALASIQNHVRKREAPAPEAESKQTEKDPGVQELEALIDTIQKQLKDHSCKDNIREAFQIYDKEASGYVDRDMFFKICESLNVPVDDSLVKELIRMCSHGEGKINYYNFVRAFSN

Variants of: B1
Conditions: with dp13a_human APPL1, Q9UKG1

Variant | effect of a mutation on the interaction
K70R | with no effect

Variants of: B2
Conditions: with nmi_human NMI

Variant | effect of a mutation on the interaction
S7G | with no effect

Variants of: B3
Conditions: with pdc10_human PDCD10, Q9BUL8
pdc10_human PDCD10, Q9BUL8, sequence (Q9BUL8 whole entry): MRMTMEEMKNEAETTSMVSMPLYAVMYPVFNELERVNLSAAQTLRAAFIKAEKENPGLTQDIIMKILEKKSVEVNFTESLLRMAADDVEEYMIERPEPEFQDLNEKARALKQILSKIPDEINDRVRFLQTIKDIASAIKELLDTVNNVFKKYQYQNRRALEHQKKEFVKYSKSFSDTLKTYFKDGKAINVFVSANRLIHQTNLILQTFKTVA

Variant | effect of a mutation on the interaction
A151T | with no effect

Variants of: B3
Conditions: with eif3e_human EIF3E

Variant | effect of a mutation on the interaction
A151T | with no effect

Variants of: B4
Conditions: with efhc1_human EFHC1, Q5JVL4

Variant | effect of a mutation on the interaction
A24V | with no effect
N119D | with no effect
